Assay results: patent US20260242478A1 (published 2026)
Where no end group is shown, it is not given here.

B1: Phage-3771 (peptide, not shown: large carriers)
peptide: GNIWCEPAWMCVGF
notes: Clonal phage of the peptide-180 library, tested as crude phage supernatant
B2: Phage-3772 (peptide)
peptide: GLRMCEPMWMCQGF
modifications: cysteine pairing not given here; also: displayed on phage as pIII fusion
B3: Phage-3773 (peptide)
peptide: VHRMCEPKWMCEGF
B4: Phage-3774 (peptide)
peptide: WEGFCVPTWMCDGF
B5: Phage-3775 (peptide)
peptide: VQLMCMPEWMCSGL
B6: Phage-3776 (peptide)
peptide: PVQLCIPSWMCDGF
B7: Phage-3777 (peptide)
peptide: ISPICRPAWMCHGF
B8: Phage-3778 (peptide)
peptide: VTTLCRPAWMCHGF
B9: Phage-3779 (peptide)
peptide: EYQRCIPEWMCSGF
B10: Phage-3780 (peptide)
peptide: HMPLCIPVWMCAGF
modifications: not fully specified (residue 3); cysteine pairing not given here; also: displayed on phage as fusion to pIII, junction not given here
B11: Phage-3781 (peptide)
peptide: LVARCVPEWMCAGF
modifications: cysteine pairing not given here; also: displayed on phage as fusion to pIII, junction not given here
B12: Phage-3782 (peptide)
peptide: YSNFCVPHWMCSGF
B13: Phage-3783 (peptide)
peptide: VEVRCVPAWMCEGL
B14: Phage-3784 (peptide)
peptide: PGASCVPAWMCDGF
B15: Phage-3785 (peptide)
peptide: SVVKCVPSWMCTGF
B16: Phage-3786 (peptide)
peptide: EMIRCEPRWMCSGF
modifications: cysteine pairing not given here; also: displayed on phage as fusion to pIII, junction not given here
notes: Clone of the Peptide-180 optimisation library, tested as clonal phage supernatant
B17: Phage-3787 (peptide)
peptide: LKVECRPLWMCEGF
notes: as for B16
B18: Phage-3788 (peptide)
peptide: MLRSCVPPWMCAGF
modifications: cysteine pairing not given here; also: displayed on phage as fusion to pIII, junction not given here
notes: as for B16
B19: Phage-3789 (peptide)
peptide: EQVLCRPEWMCIGF
notes: as for B16
B20: Phage-3790 (peptide)
peptide: VSQLCIPEWMCIGI
notes: as for B16
B21: Phage-3791 (peptide)
peptide: VHMACTPWWMCVGF
notes: as for B16
B22: Phage-3792 (peptide)
peptide: HMQYCIPQWMCHGF
notes: as for B16
B23: Phage-3793 (peptide)
peptide: FAFDCVPKWMCTGF
notes: as for B16
B24: Phage-3794 (peptide)
peptide: TVKQCVPEWMCVML
notes: as for B16
B25: Phage-3795 (peptide)
peptide: DLIYCRPAWMCDGF
notes: as for B16
B26: Phage-3796 (peptide)
peptide: MERSCIPDWMCLGF
notes: as for B16
B27: Phage-3797 (peptide)
peptide: VEYLCKPVWMCQGF
notes: as for B16
B28: Phage-3798 (peptide)
peptide: MSMYCVPTWMCNGF
notes: as for B16
B29: Phage-3799 (peptide)
peptide: LELACRPMWMCQGF
notes: as for B16
B30: Phage-3800 (Peptide-180 library clone, SEQ ID NO: 4116) (peptide)
peptide: LELLCRPSWMCEGF
modifications: cysteine pairing not given here; also: displayed on phage as fusion to pIII, junction not given here
notes: Tested as clonal phage supernatant; not shown: pIII coat protein of the bacteriophage to which the peptide is fused
B31: Phage-3801 (Peptide-180 library clone, SEQ ID NO: 4117) (peptide)
peptide: EWLVCKPAWMCLGL
notes: as for B30
B32: Phage-3802 (Peptide-180 library clone, SEQ ID NO: 4118) (peptide)
peptide: EVLRCVPRWMCEKF
notes: as for B30
B33: Phage-3803 (Peptide-180 library clone, SEQ ID NO: 4119) (peptide)
peptide: GGPMCKPVWMCQGF
notes: as for B30
B34: Phage-3804 (Peptide-180 library clone, SEQ ID NO: 4120) (peptide)
peptide: IRALCEPSWMCTGF
notes: as for B30
B35: Phage-3805 (Peptide-180 library clone, SEQ ID NO: 4121) (peptide)
peptide: HMIHCVPDWMCEGF
notes: as for B30
B36: Phage-3806 (Peptide-180 library clone, SEQ ID NO: 4122) (peptide)
peptide: DQAACVPAWMCTGF
notes: as for B30
B37: Phage-3807 (Peptide-180 library clone, SEQ ID NO: 4123) (peptide)
peptide: VVSHCKPIWMCSGF
notes: as for B30
B38: Phage-3808 (Peptide-180 library clone, SEQ ID NO: 4124) (peptide)
peptide: LGVQCKPTWMCQGF
notes: as for B30
B39: Phage-3809 (Peptide-180 library clone, SEQ ID NO: 4125) (peptide)
peptide: DARLCKPTWMCMGL
notes: as for B30
B40: Phage-3810 (Peptide-180 library clone, SEQ ID NO: 4126) (peptide)
peptide: GDQMCIPLWMCEGF
notes: as for B30
B41: Phage-3811 (Peptide-180 library clone, SEQ ID NO: 4127) (peptide)
peptide: SFQRCEPEWMCYGF
notes: as for B30

Experiments:
PSMA Fab (006 PSMA Fab) [1] = target: T1, PSMA Fab (006 PSMA Fab) (biotinylated (site not stated)); experiment: clonal phage ELISA on biotinylated PSMA Fab captured on neutravidin plate, blocking buffer alone; anti-M13 HRP detection
T1 construct: also called Anti-PSMA Fab; anti-PSMA Fab

PSMA Fab (006 PSMA Fab) [2] = target: T2, PSMA Fab (006 PSMA Fab); experiment: phage ELISA; biotinylated PSMA Fab on neutravidin plate, clonal phage supernatant, anti-M13 HRP detection;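 note: wells preincubated with PSMA antigen in blocking buffer or with blocking buffer only before clonal phage were added for a short incubation, then bound phage detected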
T2 construct: also called Anti-PSMA Fab; anti-PSMA Fab
Method: (§1) Clonal phage were harvested as crude supernatants and screened via standard ELISAs. […] Prior to the addition of clonal phage. wells were incubated with blocking buffer and PSMA antigen or blocking buffer alone. Without washing or aspirating, clonal phage supernatants were then added to the wells and incubated for a short time. Wells were then washed followed by detection of bound phage using a horse radish conjugated anti-M13 antibody.

PSMA Fab (006 PSMA Fab) [3] = target: T2, PSMA Fab (006 PSMA Fab); experiment: phage ELISA; biotinylated PSMA Fab on neutravidin plate pre-incubated with PSMA antigen as competitor, anti-M13 HRP detection;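 note: crude clonal phage supernatants tested, compared against control wells pre-incubated with blocking buffer only, without PSMA antigen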
Method: as §1

Anti-PSMA Fab [4] = target: T3, Anti-PSMA Fab; experiment: clonal phage ELISA on captured PSMA Fab, wells pre-incubated with PSMA antigen as competitor, anti-M13-HRP detection;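 note: crude clonal phage supernatants added without washing after the PSMA preincubation, comparison wells received blocking buffer alone without PSMA, bound phage read after washing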
T3 construct: also called 006 PSMA Fab
Method: as §1

Anti-PSMA Fab [5] = target: T3, Anti-PSMA Fab; experiment: clonal phage ELISA on biotinylated PSMA Fab captured on neutravidin plates, anti-M13-HRP detection;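 note: crude clonal phage supernatants added to wells preincubated with PSMA antigen or with blocking buffer only (no wash between), briefly incubated, then washed before detecting bound phage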
Method: as §1

[6] = target: T4, PSMA Fab (SEQ ID NOs: 19, 20); experiment: clonal phage ELISA; captured biotinylated PSMA Fab pre-incubated with PSMA antigen as competitor, anti-M13-HRP detection
T4 construct: also called Anti-PSMA Fab; 006 PSMA Fab
Method: as §1

[7] = target: T4, PSMA Fab (SEQ ID NOs: 19, 20); experiment: clonal phage ELISA; biotinylated PSMA Fab captured on neutravidin plate, bound phage detected with anti-M13-HRP
Method: as §1

Row | Binder | Phage binding ELISA signal, Anti-PSMA Fab (PSMA Fab (006 PSMA Fab) [2]) | Phage binding ELISA signal, Anti-PSMA Fab in presence of PSMA (PSMA Fab (006 PSMA Fab) [3]) | Phage binding ELISA signal, Anti-PSMA Fab with PSMA antigen (Anti-PSMA Fab [4]) | Phage binding ELISA signal, Anti-PSMA Fab (Anti-PSMA Fab [5]) | also measured
1 | B1 |  |  |  |  | Phage binding ELISA signal, Anti-PSMA Fab (PSMA Fab (006 PSMA Fab) [1]): 1.34
2 | B2 | 1.34 | 0.0749 |  |  | 
3 | B3 | 1.33 | 0.0695 |  |  | 
4 | B4 | 1.33 | 0.0864 |  |  | 
5 | B5 | 1.33 | 0.0599 |  |  | 
6 | B6 | 1.33 | 0.0876 |  |  | 
7 | B7 | 1.33 | 0.0873 |  |  | 
8 | B8 | 1.33 | 0.0881 |  |  | 
9 | B9 | 1.33 | 0.0735 |  |  | 
10 | B10 | 1.33 | 0.113 |  |  | 
11 | B11 | 1.33 | 0.102 |  |  | 
12 | B12 | 1.33 | 0.0679 |  |  | 
13 | B13 | 1.33 | 0.0698 |  |  | 
14 | B14 | 1.33 | 0.0653 |  |  | 
15 | B15 | 1.32 | 0.0729 |  |  | 
16 | B16 |  |  | 0.0656 | 1.32 | 
17 | B17 |  |  | 0.075 | 1.32 | 
18 | B18 |  |  | 0.0821 | 1.32 | 
19 | B19 |  |  | 0.0856 | 1.32 | 
20 | B20 |  |  | 0.08 | 1.32 | 
21 | B21 |  |  | 0.0962 | 1.32 | 

Row | Binder | Phage binding ELISA signal, Anti-PSMA Fab (PSMA Fab (006 PSMA Fab) [2]) | Phage binding ELISA signal, Anti-PSMA Fab in presence of PSMA (PSMA Fab (006 PSMA Fab) [3]) | Phage binding ELISA signal, Anti-PSMA Fab with PSMA antigen (Anti-PSMA Fab [4]) | Phage binding ELISA signal, Anti-PSMA Fab (Anti-PSMA Fab [5]) | also measured
22 | B22 |  |  | 0.0825 | 1.32 | 
23 | B23 |  |  | 0.0829 | 1.31 | 
24 | B24 |  |  | 0.104 | 1.31 | 
25 | B25 |  |  | 0.0679 | 1.31 | 
26 | B26 |  |  | 0.0541 | 1.31 | 
27 | B27 |  |  | 0.0609 | 1.31 | 
28 | B28 |  |  | 0.0602 | 1.31 | 
29 | B29 |  |  | 0.0709 | 1.31 | 
30 | B30 |  |  |  |  | Phage binding ELISA signal, Anti-PSMA Fab with PSMA antigen [6]: 0.0665; Phage binding ELISA signal, Anti-PSMA Fab [7]: 1.3
31 | B31 |  |  |  |  | Phage binding ELISA signal, Anti-PSMA Fab with PSMA antigen [6]: 0.0609; Phage binding ELISA signal, Anti-PSMA Fab [7]: 1.3
32 | B32 |  |  |  |  | Phage binding ELISA signal, Anti-PSMA Fab with PSMA antigen [6]: 0.0658; Phage binding ELISA signal, Anti-PSMA Fab [7]: 1.3
33 | B33 |  |  |  |  | Phage binding ELISA signal, Anti-PSMA Fab with PSMA antigen [6]: 0.0735; Phage binding ELISA signal, Anti-PSMA Fab [7]: 1.3
34 | B34 |  |  |  |  | Phage binding ELISA signal, Anti-PSMA Fab with PSMA antigen [6]: 0.0766; Phage binding ELISA signal, Anti-PSMA Fab [7]: 1.3
35 | B35 |  |  |  |  | Phage binding ELISA signal, Anti-PSMA Fab with PSMA antigen [6]: 0.0847; Phage binding ELISA signal, Anti-PSMA Fab [7]: 1.3
36 | B36 |  |  |  |  | Phage binding ELISA signal, Anti-PSMA Fab with PSMA antigen [6]: 0.117; Phage binding ELISA signal, Anti-PSMA Fab [7]: 1.3
37 | B37 |  |  |  |  | Phage binding ELISA signal, Anti-PSMA Fab with PSMA antigen [6]: 0.083; Phage binding ELISA signal, Anti-PSMA Fab [7]: 1.29
38 | B38 |  |  |  |  | Phage binding ELISA signal, Anti-PSMA Fab with PSMA antigen [6]: 0.0911; Phage binding ELISA signal, Anti-PSMA Fab [7]: 1.29
39 | B39 |  |  |  |  | Phage binding ELISA signal, Anti-PSMA Fab with PSMA antigen [6]: 0.0886; Phage binding ELISA signal, Anti-PSMA Fab [7]: 1.29
40 | B40 |  |  |  |  | Phage binding ELISA signal, Anti-PSMA Fab with PSMA antigen [6]: 0.106; Phage binding ELISA signal, Anti-PSMA Fab [7]: 1.29
41 | B41 |  |  |  |  | Phage binding ELISA signal, Anti-PSMA Fab with PSMA antigen [6]: 0.0768; Phage binding ELISA signal, Anti-PSMA Fab [7]: 1.29
